Results on 41 variants are retold here after the RNAGym collection of RNA variant scans (doi:10.7554/elife.90254).

B1: OR4K15 (parent)
chain: GUUAACGGUCAUAGGCCAUGGAAACUAGGAGCACCAUUUCGCUGCCAGUGAAGAAAUGAACAAAGAAAAUCUGGGCCAGGCAGGCAUCAAAAGAAAUAGUCUUGCGCUCAACCAGAAAGUCUGUAAUCAUUUUAAGGGUA

Variants of B1 are the subject of this data set. The data set can be described thus: self-cleavage, relative activity (ratio to wild type); higher = more cleavage; in vitro, sequencing; the parent is a self-cleaving ribozyme.
GGUAACGGUCAUAGGCCAUGGAAACUAGGAGCACCAUUUCGCUGCCAGUGAAGAAAUGAACGAAGAAAAUCUGGGCCAGGCAGGCAUCAAAAGAAAUAGUCUUGCGCUCAACCAGAAAGUCUGUAAUCAUUUUAAGGGUA [U2G A62G]: the self-cleavage turned out to be 0.65.

Regarding GGUAACGGUCAUAGGCCAUGGAAACUAGGAGCACCAUUUCGCUGCCAGUGAAGAAAUGAACAAAGAAAAUCUGGGCCUGGCAGGCAUCAAAAGAAAUAGUCUUGCGCUCAACCAGAAAGUCUGUAAUCAUUUUAAGGGUA [U2G A78U], the self-cleavage is 0.4.

For the variant GGUAACGGUCAUAGGCCAUGGAAACUAGGAGCACCAUUACGCUGCCAGUGAAGAAAUGAACAAAGAAAAUCUGGGCCAGGCAGGCAUCAAAAGAAAUAGUCUUGCGCUCAACCAGAAAGUCUGUAAUCAUUUUAAGGGUA [U2G U39A], the self-cleavage came out at 0.87.

For GUAAACGGUCAUAGGCCAUGGAAACUAGGAGCACCAUUUCGCUGCCAGUGAAGAAAUGAUCAAAGAAAAUCUGGGCCAGGCAGGCAUCAAAAGAAAUAGUCUUGCGCUCAACCAGAAAGUCUGUAAUCAUUUUAAGGGUA [U3A A60U], the self-cleavage worked out at 1.71.

Consider GUAAACGGUCAUAGGCCAUGGAAACUAGGAGCACCAUUUCGCUGCCAGUGAAGAAAUGAACAAAGAAAAUCUGAGCCAGGCAGGCAUCAAAAGAAAUAGUCUUGCGCUCAACCAGAAAGUCUGUAAUCAUUUUAAGGGUA [U3A G74A], for which the self-cleavage turned out to be 0.39.

For GUAAACGGUCAUAGGCCAUGGAAACUAGGAGCACCAUUUCGCUGCCAGUGAAGAAAUGAACAAAGAUAAUCUGGGCCAGGCAGGCAUCAAAAGAAAUAGUCUUGCGCUCAACCAGAAAGUCUGUAAUCAUUUUAAGGGUA [U3A A67U], the self-cleavage came to 0.46.

With GUAAACGGUCAUAGGCCAUGGAAACUAGGGGCACCAUUUCGCUGCCAGUGAAGAAAUGAACAAAGAAAAUCUGGGCCAGGCAGGCAUCAAAAGAAAUAGUCUUGCGCUCAACCAGAAAGUCUGUAAUCAUUUUAAGGGUA [U3A A30G], the self-cleavage is 0.63.

For GUAAACGGUCAUAGGCCAUGGAAACUAGGAGCACCACUUCGCUGCCAGUGAAGAAAUGAACAAAGAAAAUCUGGGCCAGGCAGGCAUCAAAAGAAAUAGUCUUGCGCUCAACCAGAAAGUCUGUAAUCAUUUUAAGGGUA [U3A U37C], the self-cleavage turned out to be 0.99.

As for GGUAACGGUCAUAGGCCAUGGAAACUAGGAGCACCAUUUCGCUGCCAGUGAAGAAAUGGACAAAGAAAAUCUGGGCCAGGCAGGCAUCAAAAGAAAUAGUCUUGCGCUCAACCAGAAAGUCUGUAAUCAUUUUAAGGGUA [U2G A59G], the self-cleavage is 0.81.

GUAAACGGUCGUAGGCCAUGGAAACUAGGAGCACCAUUUCGCUGCCAGUGAAGAAAUGAACAAAGAAAAUCUGGGCCAGGCAGGCAUCAAAAGAAAUAGUCUUGCGCUCAACCAGAAAGUCUGUAAUCAUUUUAAGGGUA [U3A A11G]: the self-cleavage was determined as 1.03.

Take GUAAACGGUCAUAGGCCAUGGAAACUAGGAGCACCAUUUCGCUGCCCGUGAAGAAAUGAACAAAGAAAAUCUGGGCCAGGCAGGCAUCAAAAGAAAUAGUCUUGCGCUCAACCAGAAAGUCUGUAAUCAUUUUAAGGGUA [U3A A47C]: the self-cleavage was 1.17.

In the case of GUAAACGGUCAUAGGCCAUGGAAACUAGGAGCACCAUCUCGCUGCCAGUGAAGAAAUGAACAAAGAAAAUCUGGGCCAGGCAGGCAUCAAAAGAAAUAGUCUUGCGCUCAACCAGAAAGUCUGUAAUCAUUUUAAGGGUA [U3A U38C], the self-cleavage was determined as 1.

For the variant GGUAACGGUCAUAGGCCAUGGAAACUAGGAGCACCAUUUCGCUGCCAGUGAAGAAAUGAACAAAGAAAAUCUGGGCCAGGCAGGCAUCAAAAGAAAUAGUCUUGCGCUCAACCAGAAAGUCUGUAAUCAUUUUAUGGGUA [U2G A135U], the self-cleavage turned out to be 1.03.

For GGUAACGGUCAUAGGCCAUGGAAACUAGGAGCACCAUUUCGCUGCCAGUGAAGAAAUGAACAAAGAAAAUCUGGGCCAGGCAGGCAUCAAGAGAAAUAGUCUUGCGCUCAACCAGAAAGUCUGUAAUCAUUUUAAGGGUA [U2G A91G], the self-cleavage is 1.16.

As to GUAAACGGUCAUAGGCCAUGGAAACUAGGAGCACCAUUUCGCUGCCAGUGAAGAAAUGAACAAAGAAAAUCUGGGCCGGGCAGGCAUCAAAAGAAAUAGUCUUGCGCUCAACCAGAAAGUCUGUAAUCAUUUUAAGGGUA [U3A A78G], the self-cleavage worked out at 0.14.

Turning to GGUAACGGUCAUAGGCCAUGGAAACUAGGAGCACCAUUUCGCUGCCAGUGAAGAAAUGAACAAAGAAAAUCUGGGCCAGGCAGGCAUCAAAAGAAAUAGUCUCGCGCUCAACCAGAAAGUCUGUAAUCAUUUUAAGGGUA [U2G U103C], the self-cleavage was found to be 0.85.

For GCUAACGGUCAUAGGCCAUGGAAACUAGGAGCACCAUUUCGCUGCCAGUGAAGAAAUGAACAAAGAAAAUCUGGGCCAGGCAGGCAUCAAAAGAAAUAGUCUUGCGCUCAACCAGAAAGUCUGUAAUCAUAUUAAGGGUA [U2C U131A], the self-cleavage was determined as 1.39.

With GCUAACGGUCAUAGGCCAUGGAAACUAGGAGCACCAUUUCGCUGCCAGUGAAGAAAUGAACAAAGAAAAUCUGGGCCAGGCAGGCAUCAAAAGAAAUAGUCUUGCGCUCAACCAGAAAGUCUGUAAUCAUCUUAAGGGUA [U2C U131C], the self-cleavage worked out at 1.08.

GGUAACGGUCAUAGGCCAUGGAAACUAGGAGCACCAUUUCGCUGCCAGUGAAGAAAUGAACAAAGAAAAUCUGGGCCAGGCAGGCAUCAAAAGAAUUAGUCUUGCGCUCAACCAGAAAGUCUGUAAUCAUUUUAAGGGUA [U2G A96U]: the self-cleavage was 0.84.

As to GCUAACGGUCAUAGGCCAUGGAAACUAGGAGCACCAUUUCGCUGCCAGUGAAGAAAUGAACAAAGAAAAUCUGGGCCAGGCAGGCAUCAAAAGAAAUAGUCUUGCGCUCAACCAGAAAGUCUGUAACCAUUUUAAGGGUA [U2C U127C], the self-cleavage is 0.9.

On to GCUAACGGUCAUAGGCCAUGGAAACUAGGAGCACCAUUUCGCUGCCAGUGAAGAAAUGAACAAAGAAAAUCUGGGCCAGGCAGGCAUCAAAAGAAAUAGUCUUGCGCUCAACCAGAAAGUCUGUAAACAUUUUAAGGGUA [U2C U127A], for which the self-cleavage amounted to 2.05.

Turning to GUAGACGGUCAUAGGCCAUGGAAACUAGGAGCACCAUUUCGCUGCCAGUGAAGAAAUGAACAAAGAAAAUCUGGGCCAGGCAGGCAUCAAAAGAAAUAGUCUUGCGCUCAACCAGAAAGUCUGUAAUCAUUUUAAGGGUA [U3A A4G], the self-cleavage is 1.4.

On to GUAAACGGUCAUAGGCCAUGGAAACUAGGAGCACCAUUUCGCUGCCAGUGAAGAAAUGAACAAAGAAAAUCUGGGCCAGGCAGGCAUCAAAAGAGAUAGUCUUGCGCUCAACCAGAAAGUCUGUAAUCAUUUUAAGGGUA [U3A A95G], for which the self-cleavage amounted to 1.42.

Turning to GGUAACGGUCAUAGGCCAUGGAAACUAGGAGCACCAUUUCGCUGCCAGUGAAGAAAUGAACAAAGAAAAUCUGGGCCAGGCAGGCAUCGAAAGAAAUAGUCUUGCGCUCAACCAGAAAGUCUGUAAUCAUUUUAAGGGUA [U2G A89G], the self-cleavage was determined as 0.3.

As for GUAAACGGUCAUAGGCCAUGGAAACUAGGAGCACCAUUUCGCUGCCAGUGAAGAAAUGAACAAAGAAAAUCUGGGCCAGGCAGGCAUCAAAAGAAGUAGUCUUGCGCUCAACCAGAAAGUCUGUAAUCAUUUUAAGGGUA [U3A A96G], the self-cleavage amounted to 1.18.

As to GGUAACGGUCAUAGGCCAUGGAAACUAGGAGCACCAUUUCGCUGCCAGUGAAGAAAUGAACAAAGAAGAUCUGGGCCAGGCAGGCAUCAAAAGAAAUAGUCUUGCGCUCAACCAGAAAGUCUGUAAUCAUUUUAAGGGUA [U2G A68G], the self-cleavage was 0.43.

In the case of GUAAACGGUCAUAGGCCAUGGAAACUAGGAGCACCAUUUCGCUGCCAGUGAAGAAAUGAACAACGAAAAUCUGGGCCAGGCAGGCAUCAAAAGAAAUAGUCUUGCGCUCAACCAGAAAGUCUGUAAUCAUUUUAAGGGUA [U3A A64C], the self-cleavage is 1.33.

Take GUAAACGGUCAUAGGCCAUGGAAACUGGGAGCACCAUUUCGCUGCCAGUGAAGAAAUGAACAAAGAAAAUCUGGGCCAGGCAGGCAUCAAAAGAAAUAGUCUUGCGCUCAACCAGAAAGUCUGUAAUCAUUUUAAGGGUA [U3A A27G]: the self-cleavage was 1.25.

Consider GUAAACGGUCAUAGGCCAUGGAAACUAGGAGCACCAUUUCGCUGCCAGUGAUGAAAUGAACAAAGAAAAUCUGGGCCAGGCAGGCAUCAAAAGAAAUAGUCUUGCGCUCAACCAGAAAGUCUGUAAUCAUUUUAAGGGUA [U3A A52U], for which the self-cleavage amounted to 0.58.

As to GGUAACGGUCAUAGGCCAUGGAAACUAGGAGCACCAUUUCGCUGCCAGUGAAGAAAUGAACAAAGAAAUUCUGGGCCAGGCAGGCAUCAAAAGAAAUAGUCUUGCGCUCAACCAGAAAGUCUGUAAUCAUUUUAAGGGUA [U2G A69U], the self-cleavage amounted to 0.94.

As for GUAAACGGUCAUAGGCCAUGGAAACUAGGAGCACCAUUUCGCUGCCAGUGAAGAAAUGAACAAAGAAGAUCUGGGCCAGGCAGGCAUCAAAAGAAAUAGUCUUGCGCUCAACCAGAAAGUCUGUAAUCAUUUUAAGGGUA [U3A A68G], the self-cleavage amounted to 2.27.

Regarding GGUAACGGUCUUAGGCCAUGGAAACUAGGAGCACCAUUUCGCUGCCAGUGAAGAAAUGAACAAAGAAAAUCUGGGCCAGGCAGGCAUCAAAAGAAAUAGUCUUGCGCUCAACCAGAAAGUCUGUAAUCAUUUUAAGGGUA [U2G A11U], the self-cleavage turned out to be 1.51.

In the case of GUAAACGGUCAUAGGCCAUGGAAACUAGGAGCACCAUUUCGCUGCCAGUGAAGACAUGAACAAAGAAAAUCUGGGCCAGGCAGGCAUCAAAAGAAAUAGUCUUGCGCUCAACCAGAAAGUCUGUAAUCAUUUUAAGGGUA [U3A A55C], the self-cleavage was determined as 1.31.

Take GCUAACGGUCAUAGGCCAUGGAAACUAGGAGCACCAUUUCGCUGCCAGUGAAGAAAUGAACAAAGAAAAUCUGGGCCAGGCAGGCAUCAAAAGAAAUAGUCUUGCGCUCAACCAGAAAGUCCGUAAUCAUUUUAAGGGUA [U2C U122C]: the self-cleavage was 0.25.

Consider GCUAACGGUCAUAGGCCAUGGAAACUAGGAGCACCAUUUCGCUGCCAGUGAAGAAAUGAACAAAGAAAAUCUGGGCCAGGCAGGCAUCAAAAGAAAUAGUCUUGCGCUCAACCAGAAAGUCGGUAAUCAUUUUAAGGGUA [U2C U122G], for which the self-cleavage came to 1.35.

On to GCUAACGGUCAUAGGCCAUGGAAACUAGGAGCACCAUUUCGCUGCCAGUGAAGAAAUGAACAAAGAAAAUCUGGGCCAGGCAGGCAUCAAAAGAAAUAGUCUUGCGCUCAACCAGAAAGUCUGUAAUCAUUAUAAGGGUA [U2C U132A], for which the self-cleavage turned out to be 1.23.

Turning to GUAAACGGUCAUAGGCCAUGGAAACUAGGAGCACCAUUUCGCUGCCAGUGAAGAAAUGAACAAAGAAAAUCUGGGCCAGGCAGGCAUCAAAAGAAAUAGUCUUGCGCUCAACCAGAAAGUCUGUAAUCAUUUUAAGGGUA [U3A], the self-cleavage was 1.

For GGUAACGGUCAUAGGCCAUGGAAACUAGGAGCACCAUUUCGCUGCCAGUGAAGAAGUGAACAAAGAAAAUCUGGGCCAGGCAGGCAUCAAAAGAAAUAGUCUUGCGCUCAACCAGAAAGUCUGUAAUCAUUUUAAGGGUA [U2G A56G], the self-cleavage stood at 1.23.

Take GUAAACGGUCAUAGGCCAUGGAAACUAGGAGCACCAUUUCGCUGCCAGUGAAGAAAUGAACAAAGAAAAUCUGGGCCAGGCAGGCAUCAAAAGAAAUAGUCUUGCGCUCAACCAGAAGGUCUGUAAUCAUUUUAAGGGUA [U3A A118G]: the self-cleavage stood at 0.9.

With GUAAACGGUCAUAGGCCAUGGAAACUAGGAGCACCGUUUCGCUGCCAGUGAAGAAAUGAACAAAGAAAAUCUGGGCCAGGCAGGCAUCAAAAGAAAUAGUCUUGCGCUCAACCAGAAAGUCUGUAAUCAUUUUAAGGGUA [U3A A36G], the self-cleavage came out at 0.85.

In the case of GUAAACGGUCAUAGGCCAUGGAAACUAGGAGCACCUUUUCGCUGCCAGUGAAGAAAUGAACAAAGAAAAUCUGGGCCAGGCAGGCAUCAAAAGAAAUAGUCUUGCGCUCAACCAGAAAGUCUGUAAUCAUUUUAAGGGUA [U3A A36U], the self-cleavage worked out at 1.61.
